Experiments:
[1] = target: Fzd7 (endogenous, mouse myogenic cells) (mouse) (UniProt Q61090); experiment: cell-based or functional assay
Fzd7-YFP (CMV-Fzd7-EYFP) = experiment: cell-based or functional assay

Wnt7a (R&D Systems) (ligand)
abundance of triangular polarized C2C12 cells [1]: 111 % increase | directional persistence of satellite cells on single myofibers (time lapse imaging) [1]: 36 % higher | mean velocity of satellite cells on single myofibers (time lapse imaging) [1]: 31 % increase | migration of C2C12 cells in scratch assay [1]: 443 % increase | migration of satellite cell derived mouse primary myoblasts in scratch assay [1]: 136 % increase | cell polarization of Fzd7-YFP expressing C2C12 cells (Fzd7-YFP (CMV-Fzd7-EYFP)): 167 % increase
